The values that follow come from publication PMC2386288, “Kinetics and Ligand-Binding Preferences of Mycobacterium tuberculosis Thymidylate Synthases, ThyA and ThyX” (PLoS ONE, 2008).

The series deals with the molecule itself. Description: SEC. For orientation: Size exclusion chromatography separates by hydrodynamic size, large species first.

B1: Histidine-tagged M. tuberculosis ThyA (thymidylate synthase) (enzyme)
chain: MSIVTPYEDLLRFVLETGTPKSDRTGTGTRSLFGQQMRYDLSAGFPLLTTKKVHFKSVAYELLWFLRGDSNIGWLHEHGVTIWDEWASDTGELGPIYGVQWRSWPAPSGEHIDQISAALDLLRTDPDSRRIIVSAWNVGEIERMALPPCHAFFQFYVADGRLSCQLYQRSADLFLGVPFNIASYALLTHMMAAQAGLSVGEFIWTGGDCHIYDNHVEQVRLQLSREPRPYPKLLLADRDSIFEYTYEDIVVKNYDPHPAIKAPVAV
notes: also called conventional thymidylate synthase
In the case of B1, the “stoichiometry N” value is 2.

For orientation: stoichiometry N means the number of molecules, sites or subunits per partner or assembly.
